Data taken from article PMC12594171, “DKK3-LRP1 complex and a chemical inhibitor regulate Aβ clearance in models of Alzheimer’s disease” (Science Advances, 2025).

Tests used:
DKK3-AP = biological target: T1, DKK3-AP (UniProt Q9UBP4 22-350); assay: SPR; Biacore T200; purified mLRPIV-6×His (15 μM) amine-coupled to a CM5 chip; DKK1 or DKK3 at 6.25 to 200 nM; conditions: both partners purified
T1 construct: DKK3 cDNA cloned into the pAPtag-5 vector (GenHunter, QV5); also called DKK3 tagged with alkaline phosphatase (AP) and 6 × His; source: HEK293, transfected, conditioned medium; purified with Ni-NTA Agarose beads; not shown: alkaline phosphatase (AP), C-terminal, kept
T1 sequence (Q9UBP4 22-350): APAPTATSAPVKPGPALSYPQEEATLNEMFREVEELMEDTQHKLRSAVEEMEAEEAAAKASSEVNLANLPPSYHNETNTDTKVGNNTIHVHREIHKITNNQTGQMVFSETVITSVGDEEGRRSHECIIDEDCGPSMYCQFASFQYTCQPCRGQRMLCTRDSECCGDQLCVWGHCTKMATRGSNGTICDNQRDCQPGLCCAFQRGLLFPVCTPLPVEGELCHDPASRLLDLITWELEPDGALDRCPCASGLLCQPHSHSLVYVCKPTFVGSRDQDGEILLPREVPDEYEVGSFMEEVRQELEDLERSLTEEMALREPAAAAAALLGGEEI

DKK1-AP = biological target: T2, DKK1-AP (UniProt O94907 32-266); assay: as above; conditions: both partners purified
T2 construct: DKK1 cDNA cloned into the pAPtag-5 vector (GenHunter, QV5); also called DKK1 tagged with alkaline phosphatase (AP) and 6 × His; source: HEK293, transfected, conditioned medium; purified with Ni-NTA Agarose beads; not shown: alkaline phosphatase (AP), C-terminal, kept
T2 sequence (looked up): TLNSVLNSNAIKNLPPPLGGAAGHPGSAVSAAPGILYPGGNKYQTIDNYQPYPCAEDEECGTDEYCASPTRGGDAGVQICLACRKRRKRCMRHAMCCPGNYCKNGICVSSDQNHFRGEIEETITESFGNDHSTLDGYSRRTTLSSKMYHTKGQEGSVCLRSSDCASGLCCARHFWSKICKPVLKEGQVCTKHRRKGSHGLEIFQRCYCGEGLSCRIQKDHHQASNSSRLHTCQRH

Kd (DKK3-AP): 0.0355 µM
Kd (DKK1-AP): 0.0823 µM
B1: mLRPIV-6 × His, prokaryotically expressed (domain or fragment)
chain: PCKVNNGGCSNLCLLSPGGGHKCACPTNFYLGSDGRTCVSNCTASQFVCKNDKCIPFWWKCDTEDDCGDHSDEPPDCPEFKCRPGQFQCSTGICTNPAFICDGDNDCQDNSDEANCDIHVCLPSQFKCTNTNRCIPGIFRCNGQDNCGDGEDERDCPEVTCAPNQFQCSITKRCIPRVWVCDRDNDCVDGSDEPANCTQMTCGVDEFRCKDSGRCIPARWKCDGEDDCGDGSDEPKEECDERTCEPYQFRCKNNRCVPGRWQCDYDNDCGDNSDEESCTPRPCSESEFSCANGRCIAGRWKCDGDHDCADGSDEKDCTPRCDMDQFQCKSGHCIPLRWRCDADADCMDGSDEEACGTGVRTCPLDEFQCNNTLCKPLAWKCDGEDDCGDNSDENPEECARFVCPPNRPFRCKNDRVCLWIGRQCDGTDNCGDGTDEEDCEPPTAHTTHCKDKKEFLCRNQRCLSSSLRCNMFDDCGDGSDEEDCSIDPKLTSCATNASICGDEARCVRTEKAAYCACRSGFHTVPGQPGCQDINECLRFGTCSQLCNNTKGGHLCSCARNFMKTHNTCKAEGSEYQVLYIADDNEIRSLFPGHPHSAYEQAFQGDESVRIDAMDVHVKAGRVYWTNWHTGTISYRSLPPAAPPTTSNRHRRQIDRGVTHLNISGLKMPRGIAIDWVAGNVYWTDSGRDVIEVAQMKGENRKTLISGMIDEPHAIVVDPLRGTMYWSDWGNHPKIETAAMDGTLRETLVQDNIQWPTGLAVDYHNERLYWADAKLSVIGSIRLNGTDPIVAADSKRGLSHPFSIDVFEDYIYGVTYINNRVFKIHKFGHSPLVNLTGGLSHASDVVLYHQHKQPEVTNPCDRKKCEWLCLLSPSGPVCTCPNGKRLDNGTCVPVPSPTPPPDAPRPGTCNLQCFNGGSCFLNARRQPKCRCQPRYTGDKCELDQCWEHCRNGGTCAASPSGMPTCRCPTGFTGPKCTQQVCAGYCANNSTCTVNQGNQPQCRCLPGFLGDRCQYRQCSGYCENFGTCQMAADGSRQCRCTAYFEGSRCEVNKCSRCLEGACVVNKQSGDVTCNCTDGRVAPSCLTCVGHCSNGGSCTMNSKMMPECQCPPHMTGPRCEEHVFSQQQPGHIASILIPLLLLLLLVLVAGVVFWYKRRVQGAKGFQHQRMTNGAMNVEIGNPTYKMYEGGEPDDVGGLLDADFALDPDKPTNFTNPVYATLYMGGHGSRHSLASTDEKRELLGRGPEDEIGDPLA
